Biological target: the molecule itself
Experiment: crystal structure; hHRF-2 crystal form, 1.4 Å; crystals grown at 18 °C in 0.1 M MES pH6.0 and 20% (w/v) PEG 2000 MME; two molecules in the asymmetric unit, disulphide-linked dimer

B1: human Histamine-Releasing Factor (natural protein, UniProt P13693 1-172, looked up)
chain: MIIYRDLISHDEMFSDIYKIREIADGLCLEVEGKMVSRTEGNIDDSLIGGNASAEGPEGEGTESTVITGVDIVMNHHLQETSFTKEAYKKYIKDYMKSIKGKLEEQRPERVKPFMTGAAEQIKHILANFKNYQFFIGENMNPDGMVALLDYREDGVTPYMIFFKDGLEMEKC
notes: Histamine-Releasing Factor (HRF/TCTP), human, wild type; Met1 to Cys172, followed by the C-terminal purification tag Leu173-His180; The tag is ordered in the crystals and contributes about 25% of the hHRF-2 dimer interface; In hHRF-2 the two chains are joined by an intermolecular disulphide bond Cys172-Cys172; also called hHRF; HRF; source: prepared according to a previously described protocol …
  stoichiometry N: 2

Source: paper PMC5966295, “Crystal structures of murine and human Histamine-Releasing Factor (HRF/TCTP) and a model for HRF dimerisation in mast cell activation” (Molecular Immunology, 2018)
